Experimental data published in article PMC5431086 (Scientific Reports, 2017).
Positions of bridges follow the written chain, without caps; N, C: chain ends. No end group written: not given here.

Assays:
Assay in all cases: enzyme inhibition assay (panel of proteases); cyc-LHSPW tested against a panel of cancer-associated proteases (Fig. 5A); conditions not given
[1] = target: trypsin
[2] = target: KLK7 (UniProt P49862 23-253)
[3] = target: T1, aminopeptidase A (UniProt Q07075 1-957)
T1 chain: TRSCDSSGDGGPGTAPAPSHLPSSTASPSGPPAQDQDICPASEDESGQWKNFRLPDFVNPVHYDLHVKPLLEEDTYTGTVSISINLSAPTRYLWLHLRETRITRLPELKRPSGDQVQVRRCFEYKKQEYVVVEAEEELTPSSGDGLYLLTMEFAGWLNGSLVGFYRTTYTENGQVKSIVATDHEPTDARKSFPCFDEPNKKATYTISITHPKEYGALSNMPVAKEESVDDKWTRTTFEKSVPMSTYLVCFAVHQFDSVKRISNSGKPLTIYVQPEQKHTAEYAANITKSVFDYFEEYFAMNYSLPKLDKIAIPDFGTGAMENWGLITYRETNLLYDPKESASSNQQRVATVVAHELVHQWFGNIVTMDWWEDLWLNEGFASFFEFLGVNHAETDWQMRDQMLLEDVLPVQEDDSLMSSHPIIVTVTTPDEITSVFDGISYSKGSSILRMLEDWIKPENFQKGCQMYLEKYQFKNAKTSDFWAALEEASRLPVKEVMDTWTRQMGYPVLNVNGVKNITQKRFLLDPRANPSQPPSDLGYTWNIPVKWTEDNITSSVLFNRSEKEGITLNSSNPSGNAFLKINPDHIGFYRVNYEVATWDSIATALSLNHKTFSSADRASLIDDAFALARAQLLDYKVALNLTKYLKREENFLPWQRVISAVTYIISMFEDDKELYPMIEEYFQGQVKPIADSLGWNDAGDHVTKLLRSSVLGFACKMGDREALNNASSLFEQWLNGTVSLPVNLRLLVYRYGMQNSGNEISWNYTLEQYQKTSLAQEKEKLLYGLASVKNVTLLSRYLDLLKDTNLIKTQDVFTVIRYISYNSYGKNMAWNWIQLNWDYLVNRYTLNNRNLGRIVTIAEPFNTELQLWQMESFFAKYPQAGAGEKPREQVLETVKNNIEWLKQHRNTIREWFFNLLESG

[4] = target: PSA (UniProt P07288 18-261)
[5] = target: FAP (UniProt Q12884 1-760)
FAP, sequence (Q12884 26-760): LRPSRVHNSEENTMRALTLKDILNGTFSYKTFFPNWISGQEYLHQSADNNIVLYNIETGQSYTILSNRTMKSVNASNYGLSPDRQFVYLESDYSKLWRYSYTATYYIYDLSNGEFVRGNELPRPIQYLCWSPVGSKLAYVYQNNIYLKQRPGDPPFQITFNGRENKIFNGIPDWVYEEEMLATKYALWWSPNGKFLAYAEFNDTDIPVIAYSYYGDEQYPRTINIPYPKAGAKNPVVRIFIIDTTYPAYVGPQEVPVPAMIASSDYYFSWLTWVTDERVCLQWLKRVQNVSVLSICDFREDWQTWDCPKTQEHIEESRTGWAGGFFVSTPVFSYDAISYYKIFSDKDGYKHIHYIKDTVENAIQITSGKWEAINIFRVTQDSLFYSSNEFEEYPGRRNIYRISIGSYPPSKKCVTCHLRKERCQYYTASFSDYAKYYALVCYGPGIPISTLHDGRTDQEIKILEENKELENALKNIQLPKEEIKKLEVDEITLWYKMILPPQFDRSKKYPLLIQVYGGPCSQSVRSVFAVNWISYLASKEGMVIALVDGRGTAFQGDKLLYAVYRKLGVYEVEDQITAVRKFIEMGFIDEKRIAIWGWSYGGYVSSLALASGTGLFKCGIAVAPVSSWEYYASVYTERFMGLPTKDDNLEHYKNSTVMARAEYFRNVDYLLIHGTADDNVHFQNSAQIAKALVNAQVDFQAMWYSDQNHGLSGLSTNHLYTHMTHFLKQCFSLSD

PSA, sequence (P07288 25-261): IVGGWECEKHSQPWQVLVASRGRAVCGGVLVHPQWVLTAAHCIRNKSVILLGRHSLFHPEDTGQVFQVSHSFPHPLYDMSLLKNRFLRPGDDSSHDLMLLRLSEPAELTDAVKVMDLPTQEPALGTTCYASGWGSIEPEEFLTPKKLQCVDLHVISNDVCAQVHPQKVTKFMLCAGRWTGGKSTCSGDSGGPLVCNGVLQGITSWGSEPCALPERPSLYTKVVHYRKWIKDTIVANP
KLK7, sequence (P49862 30-253): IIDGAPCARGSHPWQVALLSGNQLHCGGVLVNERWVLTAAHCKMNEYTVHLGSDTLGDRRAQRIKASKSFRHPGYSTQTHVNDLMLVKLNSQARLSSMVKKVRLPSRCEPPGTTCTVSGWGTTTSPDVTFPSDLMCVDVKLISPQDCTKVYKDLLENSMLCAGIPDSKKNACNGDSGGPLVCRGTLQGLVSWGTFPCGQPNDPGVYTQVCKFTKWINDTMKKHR

- Ki [1]: > 100 µM
- Ki [2]: > 100 µM
- Ki [3]: > 100 µM
- Ki [4]: > 100 µM
- Ki [5]: > 100 µM
B1: cyc-LHSPW (peptide)
peptide: CLHSPWC
modifications: disulfide 1-7
